The values below are quoted from earlier work in paper PMC3090270.

The data set deals with PKA RII alpha D/D (UniProt P12367).
Sequence of PKA RII alpha D/D (P12367 2-45): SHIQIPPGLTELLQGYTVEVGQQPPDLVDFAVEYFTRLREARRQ

Sequence of D-AKAP2 AKB (O43572 623-649): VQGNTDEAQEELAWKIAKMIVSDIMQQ

Turning to D-AKAP2 AKB (from UniProt O43572), the Kd (commonly a measure of binding affinity in units of concentration) was 2 nM.
